The target of the assay is T1, purified FADD protein (human, UniProt Q13158 1-208, limits assumed).
T1 sequence: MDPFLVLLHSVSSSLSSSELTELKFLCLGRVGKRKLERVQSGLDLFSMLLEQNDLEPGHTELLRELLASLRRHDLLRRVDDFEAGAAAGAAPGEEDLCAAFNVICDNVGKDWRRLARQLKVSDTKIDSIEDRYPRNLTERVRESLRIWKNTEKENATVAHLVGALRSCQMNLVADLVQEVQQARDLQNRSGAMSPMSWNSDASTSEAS
Kind of assay: GST pull-down of purified FADD, anti-FADD immunoblot. The procedure:
In vitro binding assays. Purified GST, GST-MUC1-CD(1-72), GST-MUC1-CD deletion mutants, GST-caspase-8, GST-caspase-8 deletion mutants, GST-FADD, GST-N-FADD and GST-C-FADD protein (36) were purified from E. coli (BL21 DE3) and immobilized on glutathione-agarose beads (Pierce). His-MUC1-CD(1-72) and His-caspase-8 deletion mutant proteins were purified on Ni-NTA beads (Qiagen, Valencia, Calif.). GST and GST fusion proteins bound to glutathione beads were incubated with purified soluble proteins for 2 hours at 4° C., and washed. Adsorbates bound to the beads were analyzed by solubilizing the protein/bead mixture in Laemli buffer following by sodium dodecyl sulfate polyacrylamide gel electrophoresis (SDS-PAGE) and immunoblotting. For competition studies, GST-caspase-8 DED protein bound to FADD was incubated with increasing amounts of MUC1-CD protein. Precipitated proteins were subjected to SDS-PAGE and immunoblot analysis. In certain studies, binding was performed in the presence of a synthetic peptide ([…]) (SEQ ID NO:3) derived from amino acids 1-20 from MUC1-CD (Molecular Biology Core Facility, Dana-Farber Cancer Institute).
For orientation: In western blotting, separated proteins are transferred to a membrane and probed.

Ends that are not written are not given here.

B1: GST-MUC1-CD(1-45) (other)
chain: {GST}-CQCRRKNYGQLDIFPARDTYHPMSEYPTYHTHGRYVPPSSTDRSP
modifications: cysteine pairing not given here; also: linker to GST not given here
notes: also called GST-MUC1-CD deletion mutant; not shown: GST fusion partner at the N end, and any linker to it
Take B1: the binding result is “no binding”.

These data come from US20110207656A1 (Dana-Farber, published 2011).
